Measurements as given in IntAct's records for PubMed 21703453.

B1: Tip elongation aberrant protein Tea4 (Schizosaccharomyces pombe (strain ATCC 38366 / 972)), O60132 (parent)
chain: MLHMNSASSADSMEIMESHFDPTQQNDSTIIESRYSPEEYLEQSFEIQRIISGENSEPQTVASQEISDSQEEDTTLTSSQFEDCGTEYNEVVEDDEFRSEDEDDFMDEEEEYALYEAELSSSPSIHEEVIDCNFVHAIRGFEATVEGQVDATKGDMMILLDDSNSYWWLVKMCKNLAIGYLPAEYIETPSERLARLNKYKNSETSNSQQSVTLPPLDIVEKTLEAPSPNFRIKRVTFTCSSNSSDDEMDSENDYEAMVNRTVAENGLEIEFSDSSDSSLSAEYRSESEDHVTDSPAYVDLTELEGGFNQFNSTSFQSTSPLGLEIVETEINGSSTTADSKNSHSPYSKFSSAYPDAENSNISKINISIAGNKELYGNATQSDPSLYSTWIANKHKTASSATVDSPLRRSLSVDAMQSNASFSSYSSTSNTDKSLRPSSYSAVSESSNFTHDVSRDNKEISLNAPKSIIVSQSDSFDTSNVTQDAPNDVEKEPISGQMPNNLSVQSLKQLEVYPIRHSVSIEMPSEKLLSPRLYSSSTPSSPTKGFQKDDEEDSENRKQADKVELSPSSLLRQMSLPVDSSSQSDAQCTTSSVYITAERKAFSQSSIDLSTLSNHHVNNEINRRSFAGGFTSLADELSEMRELLHESPAPLECNEEMVIPTPELDASSAIPSSSISHDEDLLPRKNTEESTSSSSFSSLITSPASLQYDENPFKQSVVAELNNNSSSVPFVDSAHASDIHAYDNDHVSTKNKEFNRRLREFILDPDSLSGLYWSVKSAGVRASRRVSRNIEGESVSSDLDDIFANVLKGLSDEMASLLNTNR
B2: Tip elongation aberrant protein Tea4 (Schizosaccharomyces pombe (strain ATCC 38366 / 972)), O60132 (parent)
chain: B1 chain
partner: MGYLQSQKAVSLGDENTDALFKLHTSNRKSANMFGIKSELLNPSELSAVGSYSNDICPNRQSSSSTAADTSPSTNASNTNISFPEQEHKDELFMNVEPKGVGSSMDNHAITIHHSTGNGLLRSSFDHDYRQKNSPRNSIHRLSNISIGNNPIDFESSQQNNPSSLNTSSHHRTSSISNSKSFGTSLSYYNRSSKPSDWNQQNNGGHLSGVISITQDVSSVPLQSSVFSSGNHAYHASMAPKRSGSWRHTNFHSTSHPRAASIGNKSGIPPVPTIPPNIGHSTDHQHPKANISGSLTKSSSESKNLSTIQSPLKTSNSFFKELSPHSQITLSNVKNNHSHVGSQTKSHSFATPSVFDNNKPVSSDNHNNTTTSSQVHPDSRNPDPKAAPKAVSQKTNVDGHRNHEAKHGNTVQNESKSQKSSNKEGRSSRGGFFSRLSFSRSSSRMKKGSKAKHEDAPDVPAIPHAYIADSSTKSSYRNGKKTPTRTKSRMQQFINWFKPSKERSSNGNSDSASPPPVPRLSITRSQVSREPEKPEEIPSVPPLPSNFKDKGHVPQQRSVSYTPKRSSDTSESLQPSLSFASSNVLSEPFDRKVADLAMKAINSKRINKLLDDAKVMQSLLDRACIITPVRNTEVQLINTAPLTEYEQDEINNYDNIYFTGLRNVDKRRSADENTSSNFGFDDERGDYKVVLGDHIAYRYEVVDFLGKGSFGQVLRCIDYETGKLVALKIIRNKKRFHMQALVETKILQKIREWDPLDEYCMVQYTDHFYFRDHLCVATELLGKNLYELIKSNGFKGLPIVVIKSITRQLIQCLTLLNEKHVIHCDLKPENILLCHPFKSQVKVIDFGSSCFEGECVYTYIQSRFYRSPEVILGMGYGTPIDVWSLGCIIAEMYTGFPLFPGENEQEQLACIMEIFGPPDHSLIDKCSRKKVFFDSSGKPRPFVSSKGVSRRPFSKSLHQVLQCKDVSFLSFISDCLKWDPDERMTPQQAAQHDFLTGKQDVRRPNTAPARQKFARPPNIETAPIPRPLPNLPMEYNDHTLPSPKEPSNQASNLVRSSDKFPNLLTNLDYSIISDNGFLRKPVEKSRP

Experiments:
pp11_schpo dis2, P13681 [1] = variants of: B1; conditions: with pp11_schpo dis2, P13681
Sequence of pp11_schpo dis2, P13681 (P13681 whole entry): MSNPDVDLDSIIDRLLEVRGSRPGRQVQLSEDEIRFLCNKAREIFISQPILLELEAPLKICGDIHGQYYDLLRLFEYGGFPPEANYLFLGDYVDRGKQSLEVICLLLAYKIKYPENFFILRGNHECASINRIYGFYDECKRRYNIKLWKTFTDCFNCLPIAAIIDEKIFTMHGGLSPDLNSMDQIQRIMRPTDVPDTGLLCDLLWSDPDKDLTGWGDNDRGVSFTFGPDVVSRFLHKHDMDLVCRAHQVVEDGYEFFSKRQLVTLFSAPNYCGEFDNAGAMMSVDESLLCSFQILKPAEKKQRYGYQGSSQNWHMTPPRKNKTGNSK

pp11_schpo dis2, P13681 [2] = variants of: B1; conditions: with pp11_schpo dis2, P13681; remark: listed apart in the source
pom1_schpo pom1, Q09690 [3] = variants of: B2; conditions: with pom1_schpo pom1, Q09690
pom1_schpo pom1, Q09690 [4] = variants of: B2; conditions: with pom1_schpo pom1, Q09690; remark: listed apart in the source

Row | Variant | effect of a mutation on the interaction (pp11_schpo dis2, P13681 [1]) | effect of a mutation on the interaction (pp11_schpo dis2, P13681 [2]) | effect of a mutation on the interaction (pom1_schpo pom1, Q09690 [3]) | effect of a mutation on the interaction (pom1_schpo pom1, Q09690 [4])
1 | W167A;W168A | disrupting interaction | decreasing interaction | – | –
2 | V235A;F237A | disrupting interaction | – | – | –
3 | W167A;W168A | – | – | decreasing interaction | disrupting interaction
